# Reference: patent US20170052184A1 (published 2017)
# T1: HCV Core1-169 (hepatitis C virus (HCV-1), UniProt P26664 1-169)
# T1 sequence: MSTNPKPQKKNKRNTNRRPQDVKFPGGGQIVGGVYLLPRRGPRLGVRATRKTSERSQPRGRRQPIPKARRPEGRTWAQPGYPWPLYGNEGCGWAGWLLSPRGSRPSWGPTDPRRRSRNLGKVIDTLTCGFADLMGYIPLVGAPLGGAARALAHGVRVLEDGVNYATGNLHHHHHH
# B1: HCV 208B-911 (antibody, V domains shown)
# VH: QVHLQQPGAELVRPGVSVKLSCKASGYTFTTYSINWMKQRPGQGLEWIGNIYPSTSHTNYNQKFRDKATMTVDKSSSTAYMQLSSPTSEDSAVYYCTINAYSMDYWGQGTSVTVSS
# VL: QIVLTQSPEIMSASPGEKVTITCSASSSVSFMYWFQQKPGTSPKLWIYITSNLASGVPTRFSGSGSGTSYSLTISRMEAEDAATYYCQQRSSFPYTFGGGTKLEMKR
# B2: HCV 208B-826 (antibody, V domains shown)
# VH: DVQLVESGGGLVQAGGSRKLSCAASGFPFSSFGMHWVRQAPEKGLEWVASISSRTSKIYYADNLKGRFTISRDNPKNTLFLQMTSLGSEDTAMYYCVRSVFGNSYWFFDVWGAGTTVTVSS
# VL: DIVLTQSPATLSVTPGDRVSLSCRASQRIYNYLHWYQQKSHESPRLLTKYASQSISGIPSRFSGSGSGTDFILTINSVETEDFGMYFCQQSNSWPLTFGAGTKLELRR
# B3: HCV 208A-1064 (antibody, V domains shown)
# VH: EVQLQQSGPELVKPGASVKISCKTSGYTFTEYAMHWMKQSHGKSLEWIGGINPTNGDTIYNQKFKDKAKLTVDRSSSTAYMELRSLTSDDSALFYCARRELDYFASWGQGTTLTVSS
# VL: DIVLTQSPASLIVSLGQTATISCRASQSVSTSRFSYLHWIQQKPGQPPKLLIKYASNLESGVPVRFSGSGSGTDFTLNIHPVEEEDTATYFCQHSWEFPFTFGSGTKLKIKR
# B4: HCV 208A-920 (antibody, V domains shown)
# VH: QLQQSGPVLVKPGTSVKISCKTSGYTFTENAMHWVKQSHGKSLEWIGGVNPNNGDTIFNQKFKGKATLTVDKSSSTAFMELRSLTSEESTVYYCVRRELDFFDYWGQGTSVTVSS
# VL: DIVLTQSPASLAVSLGQRATISCRASQSVSTSRYSYMHWYQQKPGQPPKLLIKYASNLESGVPARFSGSGSGTDFTLNIHPVAEEDTAAYYCQHSWEFPFTFGSGTKLEIKR
# B5: HCV 208A-133 (antibody, V domains shown)
# VH: QLQQSGPVLVGPGASVMISCKTSGYTFTENAMHWVEQSHGKSLEWIGGVNPNNGDTIFNQKFKGKATLTVDKSSSTAFMEFRSLTSEESTVYYCVRRELDFFDYWGQGTSVTVSS
# VL: DIVLTQSPASLAVSLGQRATISCRASQSVSTSRYSYMHWYQQKPGQPPKLLIKYASNLESGVPARFSGSGSGTDFTLNIHPVAEEDTATYYCQHSWEFPFTFGSGTKLEIKR
# B6: HCV 208A-159 (antibody, V domains shown)
# VH: QLQQSGPAQVKPGASVMISCKTSGYTFTENAMHWVKQSHGKSLEWIGGVNPNNGDTIFNQKFKDKAALTVDKSSSTAFMELRSLTSEESTVYYCVRRELDFFDYWGQGTSVTVSS
# VL: DIVLTQSPASLAVSLGQRATISCRASQSVSTSRYSYVHWYQQKPGQPPKLLIKYAANLESGVPARFSGSGSGTDFTLNIHPVAEEDAAAYYCQHSWEFPFTFGSGTKLEIKR
# B7: HCV 208A-741 (antibody, V domains shown)
# VH: QLQQSGPVLVKPGASVMISCKTSGYTFTENAMHWVKQSHGKSLEWIGGVNPNNGDTIFNQKFKGKATLTVDKSSSTAFMELRSLTSEESTVYYCVRRELDFFDYWGQGTSVTVSS
# VL: DIVLTQSPASLAVSLGQRTTISCGASQSVSTSRFSYMHWYQQKPGQPPKLLIKYASNLESGVPARFSGSGSGTDFTLNIHPVAEEDTAAYYCQHSWEFPFTFGSGTKLEIKR
# B8: HCV 208A-334 (antibody, V domains shown)
# VH: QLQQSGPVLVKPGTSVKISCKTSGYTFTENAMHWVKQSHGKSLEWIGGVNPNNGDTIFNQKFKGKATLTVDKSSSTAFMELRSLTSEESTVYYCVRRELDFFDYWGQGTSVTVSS
# VL: DIVLTQSPASLAVSLGQRATISCRASQSVSTSRYSYMHWYQQKPGQPPKLLIKYASNLESGVPARFSGSGSGTDFTLNIHPVAEEDTAAYYCQHSWGFPFTFGSGTKLEIKR
# B9: HCV 208A-293 (antibody, V domains shown)
# VH: EVQLQQSGPELVKPGASVKISCKASGFTFTEYAMHWMKQSHGKSLEWIGGINPTNGDAIYNQKFKDKAKLTVDRSSSTAYMELRSLTSDDSALFYCARRELDYFPSWGQGTTLTVSS
# VL: DIVLTQSPASLIVSLGQRATISCRASQSVSTSRFSYVHWIQQKPGQPPKLLIKYASNLESGVPVRFSGSGSGTDFILNIHPVEEEDTATYFCQHSWEFPFTFGSGTKLEIKR
# B10: HCV 208B-556 (antibody, V domains shown)
# VH: QLQQSGPVLVKPGASVMISCKTSGYTFTENAMHWVKQSHGKSLEWIGGVNPNNGDTIFNQKFKGKATLTVDKSSSTAFMEFRSLTSEESTVYYCVRRELDFFDYWGQGTSVTVSS
# VL: DIVLTQSPASLAVSLGQRATISCRASQSVSTSRYSYMHWYQQKPGQPPKLLIKYASNLESGVPARFSGSGSGTDFTLNIHPVAEEDTATYYCQHSWEFPFTFGSGTKLEIKR
# B11: HCV 208B-1094 (antibody, V domains shown)
# VH: EVQLQQSGPELVKPGASVKISCKTSGYTFTEYAMHWMKQSHGKSLEWIGGINPTNGDTIYNQRFKDKAKLTVDRSSSTAYMELRSLTSDDSALFYCARRELDYFASWGQGTTLTVSS
# VL: DIVLTQSPASLIVSLGQTATISCRASQSLSTSRFSYVHWIQQKPGQPPKLLIKYASNLESGVPVRFSGSGSGTDFTLNIHPVEEEDTATYFCQHSWEFPFTFGSGTKLKIKR
# B12: HCV 208B-251 (antibody, V domains shown)
# VH: QLQQSGPVLVKPGASVKISCKTSGYTFTENAMHWVKQSHGKSLEWIGGVNPNNGDTIYNQKFKGKATLTVDKSSSTAFMELRSLTSEESPVYFCVRRELDFFDYWGQGTSVTVSS
# VL: DIVLTQSPASLAVSLGKKATISCRASQSVSTSRYSYMHWYQQKPGHPPKLLIKYASNLESGVPARFSGSGSGTDFTLNIHPVAEEDTAAYYCQHSWEFPFTFGSGTKLEIKR
# B13: HCV 208A-110 (antibody, V domains shown)
# VH: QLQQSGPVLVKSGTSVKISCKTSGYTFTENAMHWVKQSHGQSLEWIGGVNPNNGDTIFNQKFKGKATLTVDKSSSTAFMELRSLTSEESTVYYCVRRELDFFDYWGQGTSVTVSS
# VL: DIVLTQSPASLAVSLGQRATISCRASQSVSTSRYSYMHWYQQKPGQPPKLLIKYASNLESGVPARFSGSGSGTDFTLNIHPVAEEDTAAYYCQHSWEFPFTFGSGTKLEIKR
# B14: HCV 208B-793 (antibody, V domains shown)
# VH: EVKLVESGGGLVQPGGSLKLSCAASGFTFSSYAMSWVRQTPERRLEWVTYISNGGGSTYYSDTVKGRFTFSRDNAKNTLYLQMSSLKSEDTAMYYCARHGLGRTGFASWGQGTLVTVSA
# VL: DIVMTQSHKFMSTSVGDRVSITCKASQDVGTAVAWYQQKPGQSPKLLIYWASTRHTGVPDRFTGSGSGTDFTLTISNVQSEDLADYFCQQYSNYLTFGAGTKLEVKR
# B15: HCV 208B-517 (antibody, V domains shown)
# VH: QVQLKQSGPGLVQPSQSLSITCTVSGFSLITHGVHWVRQSPGKGLEWLGVIWSGGSTDYNAAFISRLSISKDTSKSQVFLKMSSLQADDTAIYYCARNGGATAFDYWGQGTTLTVSS
# VL: DIVMTQSPATLSVTPGDRVSLSCRASQSISDYLHWYQQKSHESPRLLIKYASQSISGIPSRFRGSGSGSHFTLSINSVEPEDVGVYYCQNGHSFPWTFGGGTKLEIKR
# B16: HCV 208B-822 (antibody, V domains shown)
# VH: QVQLKQSGPGLVQPSQSLSITCTVSGFSLITYGVHWVRQSPGKGLEWLGVIWGGGSTGYNAAFVSRLNITKDNSKSQVFFKMNSLQPDDTAIYYCARNGGATVFDYWGQGTTLTVSS
# VL: DIVMTQSPATLSVTPGDRVSLSCRASQTISDYLHWYQQKSHESPRLLIKYASQSISGIPSRFSGSGSGSHFTLSINSVEPEDVGVYYCQNGHSFPWTFGGGTKLEIKR
# Key:
# HCV Core1-169 [1] = molecular target: T1, HCV Core1-169; experiment: SPR sandwich, capture mAb C11-7
# HCV Core1-169 [2] = molecular target: T1, HCV Core1-169; experiment: SPR sandwich, capture mAb C11-9
# HCV Core1-169 [3] = molecular target: T1, HCV Core1-169; experiment: SPR sandwich, capture mAb C11-14
# HCV Core1-169 [4] = molecular target: T1, HCV Core1-169; experiment: SPR sandwich, capture mAb C11-3
# [5] = molecular target: T2, HCV Core 134-171-TT Peptide (hepatitis C virus (HCV-1 numbering) …); experiment: SPR, captured mAb, peptide analyte
# T2 construct: also called ALRZ-9 peptide
Binder,expected percent binding (HCV Core1-169 [1]) [%],expected percent binding (HCV Core1-169 [2]) [%],expected percent binding (HCV Core1-169 [3]) [%],expected percent binding (HCV Core1-169 [4]) [%],Kd [5] [nM],koff [5] [s⁻¹],kon [5] [M⁻¹ s⁻¹]
B1,≤ 1,≤ 1,≤ 1,≤ 1,–,–,–
B2,≤ 1,≤ 1,≤ 1,≤ 1,–,–,–
B3,19.6,10.5,16.3,16.3,0.21,0.00034,1.6e+06
B4,22.9,13.2,19.1,19.3,0.39,0.00056,1.5e+06
B5,13.9,5.8,9.3,9.8,0.41,0.0005,1.2e+06
B6,7,3.3,5.5,4.6,0.45,0.00065,1.4e+06
B7,22.7,14.2,21.2,19.4,0.41,0.00069,1.7e+06
B8,20.6,10.3,15.9,17.2,0.34,0.00057,1.7e+06
B9,20.9,11,16.4,17.9,0.11,0.00023,2.1e+06
B10,15.3,8.3,12.7,11.5,0.4,0.0006,1.5e+06
B11,28.4,19.8,27.8,24.4,0.16,0.00025,1.5e+06
B12,20.1,12.3,18.2,16.6,0.58,0.00065,1.1e+06
B13,21.1,9.4,14.8,15.7,0.33,0.00055,1.7e+06
B14,≤ 1,≤ 1,≤ 1,≤ 1,–,–,–
B15,≤ 1,≤ 1,≤ 1,≤ 1,–,–,–
B16,≤ 1,≤ 1,≤ 1,≤ 1,–,–,–
